Here are results for eleven molecules from paper PMC10397247.

Where two headings read alike, the source gives them in different places.

Test in all cases: two-hybrid library CCmax;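 further: natural log of median RNA to DNA barcode read ratio; higher means stronger binding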
For one test, the target named is T1, 4H452-AA.
T1 chain: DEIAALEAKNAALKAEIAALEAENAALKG
The note with it: mean of both orientations.

Another test deals with T2, 4H3015-AA.
T2 chain: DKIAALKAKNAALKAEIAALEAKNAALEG
The note with it: mean of both orientations.

The target in another test is T3, 4H3844-AA.
T3 chain: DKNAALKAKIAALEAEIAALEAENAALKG
The conditions noted are these: mean of both orientations.

The target of a further test is T4, 4H2165-AA.
T4 chain: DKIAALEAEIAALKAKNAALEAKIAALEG

The target of another test is T5, 4H342-AA.
T5 chain: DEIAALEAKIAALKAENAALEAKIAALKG
The note with it: mean of both orientations.

In another test the target is T6, 4H3438-AA.
T6 chain: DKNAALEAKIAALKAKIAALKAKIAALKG
The conditions noted are these: mean of both orientations.

A further test has as its target T7, 4H406-AA.
T7 chain: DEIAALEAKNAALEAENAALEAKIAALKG
The note with it: mean of both orientations.

The target of another test is T8, 4H2944-AA.
T8 chain: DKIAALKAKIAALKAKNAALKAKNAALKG
The conditions noted are these: mean of both orientations.

The next test addresses T9, 4H3343-AA.
T9 chain: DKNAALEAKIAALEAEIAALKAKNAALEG
The conditions noted are these: mean of both orientations.

A further test has as its target T10, 4H2190-AA.
T10 chain: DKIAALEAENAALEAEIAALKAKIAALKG
The conditions noted are these: mean of both orientations.

The next test concerns the target T11, 4H249-AA.
T11 chain: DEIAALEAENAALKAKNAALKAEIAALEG

The target of another test is T12, 4H566-AA.
T12 chain: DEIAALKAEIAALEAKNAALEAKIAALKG
The conditions noted are these: mean of both orientations.

The next test has as its target T13, 4H2931-AA.
T13 chain: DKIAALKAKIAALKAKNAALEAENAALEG
The conditions noted are these: mean of both orientations.

Another test concerns the target T14, 4H881-AA.
T14 chain: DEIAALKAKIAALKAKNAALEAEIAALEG
The conditions noted are these: mean of both orientations.

The target of the next test is T15, 4H2617-AA.
T15 chain: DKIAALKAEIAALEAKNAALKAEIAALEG
The conditions noted are these: mean of both orientations.

The next test has as its target T16, 4H2883-AA.
T16 chain: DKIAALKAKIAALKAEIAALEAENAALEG
The conditions noted are these: mean of both orientations.

The target of the next test is T17, 4H3001-AA.
T17 chain: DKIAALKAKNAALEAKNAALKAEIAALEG
The note with it: mean of both orientations.

Another test has as its target T18, 4H2642-AA.
T18 chain: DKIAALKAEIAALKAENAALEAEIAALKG
The note with it: mean of both orientations.

Another test has as its target T19, 4H347-AA.
T19 chain: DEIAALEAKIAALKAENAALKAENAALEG
The note with it: mean of both orientations.

The target in another test is T20, 4H_BCR.
T20 chain: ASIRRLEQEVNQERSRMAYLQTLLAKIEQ
The conditions noted are these: mean of both orientations.

A further test concerns the target T21, 4H317-AA.
T21 chain: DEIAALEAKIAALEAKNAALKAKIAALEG
The note with it: mean of both orientations.

The next test concerns the target T22, 4H485-AA.
T22 chain: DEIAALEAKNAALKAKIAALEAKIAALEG
The conditions noted are these: mean of both orientations.

In the next test the target is T23, 4H94-AA.
T23 chain: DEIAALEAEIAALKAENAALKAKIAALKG
The conditions noted are these: mean of both orientations.

In a further test the target is T24, 4H3395-AA.
T24 chain: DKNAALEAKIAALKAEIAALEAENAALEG
The note with it: mean of both orientations.

The target in a further test is T25, 4H3381-AA.
T25 chain: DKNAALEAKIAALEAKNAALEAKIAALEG
The conditions noted are these: mean of both orientations.

A further test deals with T26, 4H2109-AA.
T26 chain: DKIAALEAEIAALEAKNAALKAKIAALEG
The conditions noted are these: mean of both orientations.

For the next test, the target named is T27, 4H850-AA.
T27 chain: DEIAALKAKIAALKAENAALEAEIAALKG
The conditions noted are these: mean of both orientations.

The target in another test is T28, 4H1877-AA.
T28 chain: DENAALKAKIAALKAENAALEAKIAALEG
The conditions noted are these: mean of both orientations.

A further test deals with T29, 4H380-AA.
T29 chain: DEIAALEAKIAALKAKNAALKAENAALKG
The note with it: mean of both orientations.

A further test has as its target T30, 4H3049-AA.
T30 chain: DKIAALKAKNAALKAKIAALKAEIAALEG
The note with it: mean of both orientations.

The next test concerns the target T31, 4H3782-AA.
T31 chain: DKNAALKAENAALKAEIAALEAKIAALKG
The note with it: mean of both orientations.

The next test deals with T32, 4H2728-AA.
T32 chain: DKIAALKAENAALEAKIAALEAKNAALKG
The note with it: mean of both orientations.

Another test concerns the target T33, 4H3939-AA.
T33 chain: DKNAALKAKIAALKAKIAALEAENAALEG
The conditions noted are these: mean of both orientations.

The target of a further test is T34, 4H483-AA.
T34 chain: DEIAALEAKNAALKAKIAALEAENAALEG
The conditions noted are these: mean of both orientations.

The next test has as its target T35, 4H2580-AA.
T35 chain: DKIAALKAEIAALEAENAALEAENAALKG
The conditions noted are these: mean of both orientations.

The next test deals with T36, 4H341-AA.
T36 chain: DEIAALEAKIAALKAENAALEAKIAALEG
The note with it: mean of both orientations.

In another test the target is T37, 4H2907-AA.
T37 chain: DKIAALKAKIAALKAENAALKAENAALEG
The conditions noted are these: mean of both orientations.

A further test deals with T38, 4H1874-AA.
T38 chain: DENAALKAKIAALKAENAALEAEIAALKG
The conditions noted are these: mean of both orientations.

The target of a further test is T39, 4H2553-AA.
T39 chain: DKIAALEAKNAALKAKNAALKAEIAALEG
The conditions noted are these: mean of both orientations.

The target of a further test is T40, 4H2620-AA.
T40 chain: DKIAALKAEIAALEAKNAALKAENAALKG
The note with it: mean of both orientations.

The target of the next test is T41, 4H2198-AA.
T41 chain: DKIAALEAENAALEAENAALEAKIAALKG
The note with it: mean of both orientations.

Another test concerns the target T42, 4H32-AA.
T42 chain: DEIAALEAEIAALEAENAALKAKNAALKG
The conditions noted are these: mean of both orientations.

On to DKIAALEAEIAALKAKNAALEAKIAALEG [4H2165-AA], for which the interaction score in the test with 4H452-AA is -1.51; in the test with 4H3015-AA, -1.54; with 4H3844-AA, -1.35; with 4H2165-AA, 1.41; with 4H342-AA it was 1.73; in the test with 4H3438-AA, -1.07. Further, the interaction score was -1.15 with 4H406-AA; -1.53 with 4H2944-AA; -0.847 with 4H3343-AA; -1.12 with 4H2190-AA; -1.16 with 4H249-AA (mean of both orientations); 0.482 with 4H566-AA. The interaction score was -1.58 in the test with 4H2931-AA; 0.00404 in the test with 4H881-AA; 0.892 in the test with 4H2617-AA; -1.67 with 4H2883-AA; -1.67 with 4H3001-AA; 0.223 in the test with 4H2642-AA. Further, the interaction score was -1.3 with 4H347-AA, -0.379 with 4H_BCR and 0.575 in the test with 4H317-AA.
DENAALKAEIAALKAENAALKAEIAALKG [4H1626-AA]: the interaction score is -1.46 with 4H485-AA; 1.29 with 4H94-AA; -1.8 in the test with 4H406-AA; -1.69 with 4H3395-AA; -1.5 in the test with 4H3381-AA; -1.39 with 4H249-AA (mean of both orientations). In addition, the interaction score in the test with 4H2109-AA is -1.51; with 4H850-AA it was 1.29; in the test with 4H3001-AA it was -2.01; in the test with 4H1877-AA, -0.845; in the test with 4H347-AA it was -1.66.
On to DEIAALEAENAALKAKNAALKAEIAALEG [4H249-AA], for which the interaction score with 4H452-AA was -1.53; with 4H380-AA, -1.27; in the test with 4H3015-AA, -1.1; in the test with 4H3049-AA it was -1.71; with 4H3782-AA it was 1.43; with 4H3438-AA it was -1.6. The interaction score is 1.19 with 4H406-AA; -1.79 with 4H3381-AA; -0.781 with 4H249-AA; -0.387 with 4H2728-AA; -1.53 with 4H2931-AA; -1.85 with 4H3939-AA. The interaction score is -1.76 in the test with 4H483-AA; -1.12 with 4H3001-AA; 0.274 with 4H347-AA; -0.825 in the test with 4H2580-AA; -1.72 with 4H_BCR; 0.538 with 4H341-AA.
DENAALEAKIAALKAKIAALKAEIAALEG [4H1385-AA]: the interaction score with 4H3049-AA is -0.544; in the test with 4H485-AA, -0.799; with 4H94-AA it was -0.994; with 4H3395-AA, 0.689; with 4H3381-AA, -1.28; in the test with 4H2109-AA, 0.64. Besides, the interaction score in the test with 4H850-AA is -0.784; in the test with 4H1877-AA, -0.357; with 4H_BCR, -1.56.
Regarding DEIAALEAENAALEAKIAALKAENAALEG [4H171-AA], the interaction score is -0.423 with 4H485-AA; -1.72 in the test with 4H94-AA; -1.24 in the test with 4H3395-AA; -1.57 with 4H3381-AA; -0.826 in the test with 4H2109-AA; -1.11 in the test with 4H850-AA. This molecule displayed an interaction score with 4H1877-AA of -1.1.
Take DENAALKAKIAALEAKNAALEAKIAALEG [4H1845-AA]: the interaction score with 4H2907-AA was -1.92; with 4H3782-AA, -1.6; in the test with 4H1874-AA it was -1.25; in the test with 4H2553-AA, -1.84; in the test with 4H2620-AA it was -1.86; with 4H2198-AA, -1.5. In the test with 4H32-AA, this molecule showed an interaction score of -1.5.
Regarding DKNAALKAEIAALEAENAALEAKIAALKG [4H3606-AA], the interaction score in the test with 4H3844-AA was -1.17; with 4H566-AA, -0.683; in the test with 4H881-AA, 2.32; with 4H_BCR, -0.919.
Regarding DENAALEAKIAALKAEIAALEAKIAALKG [4H1350-AA], the interaction score in the test with 4H3049-AA is 0.379; with 4H_BCR, -1.28.
As for DENAALEAENAALKAKIAALKAEIAALEG [4H1257-AA], the interaction score with 4H380-AA is -1.14; with 4H3049-AA, -0.309; in the test with 4H3782-AA it was 2.21; with 4H249-AA (mean of both orientations), -1.46; with 4H2728-AA, -0.459; with 4H3939-AA it was -1.27. For the same molecule, the interaction score was -1.91 with 4H483-AA, -1.12 with 4H2580-AA, -2.19 with 4H_BCR and -1.24 with 4H341-AA.
With DKIAALEAENAALKAEIAALKAKIAALEG [4H2253-AA], the interaction score with 4H452-AA is -1.74; in the test with 4H3015-AA it was -1.11; with 4H485-AA, -0.48; with 4H94-AA, -1.54; with 4H3438-AA, -1.2; in the test with 4H406-AA, -1.67. Moreover, the interaction score was -1.22 with 4H3395-AA; -1.4 with 4H3381-AA; -1.56 with 4H249-AA (mean of both orientations); -0.973 in the test with 4H850-AA; -1.52 with 4H2931-AA; -1.42 with 4H3001-AA. In addition, the interaction score with 4H347-AA is -1.66; with 4H_BCR, -1.47.
With DENAALEAEIAALEAKIAALEAKNAALKG [4H1064-AA], the interaction score with 4H380-AA was -0.648; with 4H3049-AA, 0.863; with 4H3782-AA it was -0.855; with 4H249-AA (mean of both orientations), -2.06; with 4H2728-AA, -1.43; with 4H3939-AA it was 2.3. The interaction score with 4H483-AA is -0.857; in the test with 4H2580-AA, 1.19; with 4H341-AA, -1.26.
